# The nanobody polyreactivity screen of Harvey et al. (2022)
# Experiment: yeast display, Sf9 membrane polyspecificity reagent, FACS + sequencing; frameworks hold sequencing errors
# How it was run: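 Galactose induction of a Saccharomyces cerevisiae BJ5465 synthetic nanobody display library ran 36–48 hours. The cells were then stained for 1 hour at 4 °C with 10% biotinylated, detergent-solubilized Sf9 membrane reagent, pulled down on streptavidin microbeads and FACS-sorted into low and high (top ~1%) gates on expression and reagent-binding fluorescence. Labels for polyreactivity follow the gate of origin.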
row,Sequence,polyreactivity (PSR sort gate)
1,QVQLVESGGGLVQAGGSLRLTCAASVRTCYSYALGWYRQEPGKEMELVASISSGGGTNYADSVKGRFTISRYNAKNTVFLQMNSLKPEDTAVYYFAAYSSWGGFDYWGQGTQLTVSS,low polyreactivity
2,QVQLVESGGGLVQAGGSLRLTSADSGSTFSFSAMRWYRQAPGKERELVAAIRSSVGSTYYADSVKGRFTISRDNAKNTVYLQMNSLKPEDTAVYNCAATTHWFRSYREFYYWGQGTQVTVSS,high polyreactivity
3,QVQLVESGGGLVQAGGSLRLTWEAYGFTFKYYPMGWYRQAPGKEWELVADITRSGGSTYYADSVKGRFTISRDNAKITVYLEMYILKPEDTAVYYCAVDPVRYQYSYDYWCQGTQVTVSS,high polyreactivity
4,QVQLVESGGGLVQAGGSLRVICAASGSTFLENAMGWYRQAPGKERELVAAISRSGARTYYADSVKGRFTISRDNAKNTVYLQMNSLKPEDTAVYYCAASHGKNKASGPMDYWGQGTQVTVSS,high polyreactivity
5,QVQLVESGGGLVQAGGSLRVSCAASGFIFLYYAMGWYRQAPGKERELVADISRGADTKYADSVKGRFTISRDNAKNTVYLQMNSLKPEDTAVYYCATDITTFWFPYPGVELGYWGQGTQVTVSS,low polyreactivity
6,QVQLVESGGGLVQAGGSLRVSCAASGFIFTGYTMGWYRQAPGKERELLAAVSYRGGSTYYADSVKGRFTISRDNAKNTVYLQMNSLKPEDTAVNYCNAVWSNFRLGYDYWGQGTQVTVSS,high polyreactivity
7,QVQLVESGGGLVQAGGSLRVSCAASGFTFGPYDMGGSRQAPGKERELVAVIIGGDSTNYADSVKGRFTISRDNAKNTVYLQMNRLKPEDTAVYYCAADYIDRVGWMDYWGQGTQVTVSS,low polyreactivity
8,QVQLVESGGGLVQAGGSLRVSCAASGFTFYVNAMGRYRQAPGKERELVAVISPSGGRTYYADSVKGRFTISRDNAKNTVYLQMNSLKPEDTAVYYCAAESGGYHWSTPYFDWLYYYWGQGTQVTVSS,low polyreactivity
9,QVQLVESGGGLVQAGGSLRVSCAASGIIFVVYDMGWYRQAPGKERELVAAINWSGGSTYYADSVKGRFTISRDNAKNTVYLQMNSLKPEDTAVYYCAAESFSDGSPYNYWGQGTQVTVSS,low polyreactivity
10,QVQLVESGGGLVQAGGSLRVSCAASGRIFDSYAMGWSRQAPGKERELVAVISNNDGTTYYADSVKGRFTISRDNAKTTVYLQMNSLKPEDTAVYYCNAVYSSGVDGSEGFDYWGQGTQVTVSS,low polyreactivity
11,QVQLVESGGGLVQAGGSLRVSCAASGRTFGVYTMGWYRLAPGKERELVAAITWGGGRTYYADSVKGRFTISRDNAKNTVYLHMNSLKPEDTAVYYRAARVRGQGSYHFGYWGQGTQVTVSS,high polyreactivity
12,QVQLVESGGGLVQAGGSLRVSCAASGRTFPYYDMGWYRQAPGKEREFVAAITWRGGSTYYADSVKGRFTISRDNAKNTVYLQMNSLKPEDSAVYYCATDSLRLYGGKRDLYYWGQGTQVTVSS,low polyreactivity
13,QVQLVESGGGLVQAGGSLRVSCAASGRTLRSYAMGWYRQAPGKERELVAAISRSGGSTYYADSVKGRFTISRDNAKNPVYLQMNSLKPEDTSVYYCATRYLRSLDYWGQGTQVTVSS,high polyreactivity
14,QVQLVESGGGLVQAGGSLRVSCAASGSIFHENAMGWYRPAPGKEWELVAAIDQTGSTYADSVKGRFTISRDNAKNTVYLQMNSLKPEDTAVYYCAKGDVSLDYPSLEFDYWGQGTQVTVSS,low polyreactivity
15,QVQLVESGGGLVQAGGSLRVSCAASGSIFHFYTMGWYRQAPGKERELVAAISSTGSTNYADSVKGRFTISRDNAKNTVYLQMNSLKPEDTAVYYCAAVGTYLAGYQFDYWGQGTQVTVSS,low polyreactivity
16,QVQLVESGGGLVQAGGSLRVSCAASGSIFIVYAMGWYRQAPGKDRELVATISSGGSTNYAVSVKGRFTISRDNAKNTVYVQMNTLKPEATAVYYCAAESYWGSGLVPGYDYWGQGTQGTVSS,low polyreactivity

row,Sequence,polyreactivity (PSR sort gate)
1,QVQLVESGGGLVQAGGSLRVSCAASGSIFSLYTMGWYRQAPGKERELVAAISGSGGRTYYADSVKGRFTISRDNAKNTVYLQMNSLKPEDTAVYYCAADTRSYTYYYWGQGTQVTVSS,high polyreactivity
2,QVQLVESGGGLVQAGGSLRVSCAASGSIFSYYDMGWYRPAPGKERELVAAITDGGDRTYYADSVKGRFTISRDNAKNTVYLQMNSLKPEHTAVYYCAAVVSVNMYWGQGTQVTVSS,low polyreactivity
3,QVQLVESGGGLVQAGGSLRVSCAAYGRTFYRNTMGWYRQAPGKEREFVAAISATAGRTYYADSVKGRFTFSRDNAKNTVYLQKNSLKPEDTAVYYCAAVPLRNRWPNSWPALDYWGQGTQVTVSS,high polyreactivity
4,QVQLVESGGGLVQAGGSLSLICAASGFIFDVYAMGWYRQAPGKERELVAAISRSGGSTHYADSVKGRFTISRDNAKNTVYLQMNSLKPEDTAVYYFATRIRVGYAKYDYWGQGTQVTVSS,high polyreactivity
5,QVQLVESGGGLVQAGGSLSLICAASGFTFYIYAMGWSRQAPRKERELVAAISSSGGSTYYADSVKGRFTISRDNAKITVYLQMNSLKPEDTAVYYCARRLLRGSDWGQGTQVTVSS,high polyreactivity
6,QVQLVESGGGLVQAGGSLSLICAASGGTFERYAMGWYRQAPGKERELVAAISRSGGRTYYADSVKGRFTISRDNAKNSVYLQMNSLKPEDTAVYYCNSLGRYRMDYWGQGTQVTVSS,high polyreactivity
7,QVQLVESGGGLVQAGGSLSLICAASGLIFKYNDMGWYRQAPGKERELVAAISTSGGSTYYADSVKGRFTISRDNAKNTVYLQMNSLKPEDTAVYYCNARRQRNKSYNYWGQGTQVTVSS,high polyreactivity
8,QVQLVESGGGLVQAGGSLSLICAASGSTFRYYTMGWYRQAPGKERELVAVISRSDDSTYADSVKGRFTISRDNAKNTVYLQMNSLKPVDTAVYYCAAAGGLFFRSTVPRGDFWGQGTQVTVSS,low polyreactivity
9,QVQLVESGGGLVQAGGSLSLICAASRFTFDSYAMGWYRQAPGKERELVAAINYSGGRTDYADSVKGRFTISRDNAKNTVYLQMNSLKPVDTAVYYCAAKGVRWGQGTQVTVSS,high polyreactivity
10,QVQLVESGGGLVQAGGSLSLICDASRFTFGFYAMGWYRQAPGKERELHAAISTTVGSTYYADSVKGRFTISRDNAKNTVYLQMNSLKPEDTAVFYCAAEYTGYINYYIYEYWRQGTQVTVSS,low polyreactivity
11,QVQLVESGGGLVQAGGSLSLMCAASGGIFPRYTRGWYRQAPGKEREMVASISRSGASTYYADSVKGRFTISRDNAKNTVYLQMNSLKTEDTAVYYCNARFVTGYWYIWENYWGQGTQVTVSS,high polyreactivity
12,QVQLVESGGGLVQAGGSLSLRCAASGRTVGSYAMVWYRQAPGKERELVAVINGDGSTYYADSVKGRFTISRDNAKNTVYFQMNSLKPVDTAVYYCNNVSFYLGTRRVSLKHYYWGQGTQVTLSS,low polyreactivity
13,QVQLVESGGGLVQAGGSLSLRCASSGSTFAYYAMGWYRQAPGKERELVAGNNWTGGSTYYADSVKGRFTISRDNAKNTVYLQMNSLKPEDTAVYYCAVTYPYGYEYDHWGQGTQVTVSS,low polyreactivity
14,QVQLVESGGGLVQAGGSLSLSCAASGFIFLASAMGWYRQAPGKERELVAAISSGSSTSYADSLKGRFTISRDNAKNTVYLQMNSLKPEDTAVYYCNAVPSFANLTWESYDYWGQGTQVTVSS,low polyreactivity
15,QVQLVESGGGLVQAGGSLSLSCAASGFTFEKNAMGWYRQAPGKERELVAAITSGGSTYYADSVKGRFTISRDNAKNTVYLQMNSLKPEDTAVYYCNAYYTYRFNYWGQGTQVTVSS,high polyreactivity
16,QVQLVESGGGLVQAGGSLSLSCAASGFTIYYYAMGWYRQAPGKERELVASITSGGSTYYADSVKGRFTISRDNAKNTVYLQMNSLKPEDTAVYYCAKTRFHSKEGDYWGQGTQVTVSS,low polyreactivity
